Molecular target: porcine pancreatic elastase (PPE) (Sus scrofa, UniProt P00772)
Assay: Inhibition of porcine pancreatic elastase by rAAT (specific activity)
Assay type: biochemical
Method: To determine the specific activity, the rAAT small spherical particles were dissolved in 0.2M Tris-HCl pH 8.0 at room temperature. The resulting solution was analyzed by an assay which measures the capacity of rAAT to inhibit the ability of porcine pancreatic elastase (PPE) to hydrolyze synthetic peptides that contain a p-nitroanilide group at their C-terminus. The same solution of rAAT small spherical particles was then assayed for protein concentration using the Bicinchoninic Acid (BCA) assay. A control rAAT starting material solution was also analyzed in both assays. Because the activity assay was developed to determine the activity based on a concentration of 1 mg/ml protein per sample, the activity value was corrected based on the actual protein concentration as determined by BCA, giving the specific activity value: [formula]

porcine pancreatic elastase (PPE), sequence (P00772 27-266): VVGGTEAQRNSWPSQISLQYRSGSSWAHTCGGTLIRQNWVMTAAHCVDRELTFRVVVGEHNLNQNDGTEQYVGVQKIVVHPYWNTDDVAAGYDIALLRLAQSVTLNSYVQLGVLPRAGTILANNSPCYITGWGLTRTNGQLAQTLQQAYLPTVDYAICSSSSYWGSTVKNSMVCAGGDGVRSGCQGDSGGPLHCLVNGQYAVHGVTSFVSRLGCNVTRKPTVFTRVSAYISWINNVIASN

control rAAT starting material: control solution of recombinant alpha-1-antitrypsin starting material
specific activity, inhibition of porcine pancreatic elastase (scale 100-300 mg (n = 12, column)): 64.34 ± 4.95 IU/mg | specific activity, inhibition of porcine pancreatic elastase (scale 200-300 mg (n = 8, vessel)): 65.87 ± 0.98 IU/mg

Reference: US20050147687A1, “Methods for fabrication, uses and compositions of small spherical particles of AAT prepared by controlled phase separation” (priority 2003, published 2005)
